Measured values published in patent publication US20190112385A1 (NBE THERAPEUTICS, published 2019).

Legend:
[1] = target: T1, StrepII-tagged Mesothelin (human mesothelin isoform 2, NP_037536, with C-terminal strepII-tag) (human, UniProt Q13421-1 296-606, limits assumed); experiment: ELISA of 293T supernatant on coated Mesothelin, divided by the IgG titer from a sandwich ELISA
T1 construct: also called Mesothelin-strep; soluble antigen
Description: (§1) Antigen-binding analysis by ELISA was performed by coating of Nunc-Immuno MaxiSorp 96-well plates (Thermo Scientific, Waltham, USA) with antigen diluted in coating buffer (100 mM bicarbonate/carbonate buffer) over night at 4° C. For sandwich ELISA, plates were coated with 2 μg/ml AffiniPure F(ab′)2 fragment donkey anti-human IgG (Jackson Immunoresearch, West Grove, USA) diluted in coating buffer over night at 4° C. After coating, plates were washed twice with PBS/0.05% Tween-20 (PBS-T), blocked with PBS-T containing 3% bovine serum albumin (BSA) (Carl Roth, Karlsruhe, Germany) for 1 hour at 37° C. and washed again 5 times with PBS/T. L11 clone supernatants were pre-diluted 3-fold, while supernatants from 293T cells were pre-diluted 50-fold. Parental mAbs diluted to 0.5 μg/ml were used to generate standard curves. 3.5-fold serial dilutions of samples were added and plates were incubated for 1 hour at 37° C. After 5 washes with PBS/T, HRPO-conjugated F(ab)2 anti-human FC-gamma (Jackson Immunoresearch, West Grove, USA) was added at 10′000-fold dilution in PBS/T containing 1% BSA, and plates were incubated for 1 hour at 37° C. Finally, plates were washed 5 times with PBS/T and 50 μl of Sigmafast OPD Peroxidase substrate (Sigma-Aldrich, St. Louis, USA) were added. Reactions were stopped by adding 50 μl of 2M H₂SO₄. Absorption was measured at 490 nm. OD50 values of standards with known concentrations and samples determined by 4-point curve fitting models were used to calculate EC50.
(§2) FIG. 10B Deconvolution and validation of recovered sequences. All possible combinations of VH/VL pairs per clone along with the parental pair as a control were transiently transfected into 293T cells. Cell clones and supernatants were analysed for antigen-binding and IgG titer by ELISA as described in FIG. 4D. Ratios of antigen-binding/IgG titers were determined to obtain antigen binding values normalized to IgG content in supernatants (Meso-binding/IgG). Normalized binding is also shown in relation to parental mAb (binding % of parental).

[2] = target: T1, StrepII-tagged Mesothelin (human …); experiment: SPR (Biacore T200), mAb captured by anti-human Fc-gamma IgG (ligand level 217.8 RU), Mesothelin-strep 10 to 1.25 nM as analyte, 25 °C, 1:1 model; Chi2 0.151 RU2
Description: (§3) Table 1. Affinities of parental mouse mAb MN and humanized versions thereof. To evaluate the binding strength (affinity) of the generated humanized monoclonal antibodies (mAbs), and to compare affinites with parental mAbs, surface plasmon resonance (SPR) measurements were conducted, a biophysical method to accurately determine affinity. SPR was performed using a Biacore T200 instrument (GE Healthcare, Buckinghamshire, UK) and data was evaluated using Biacore Evaluation T200 V2.0 software. To capture mAbs, goat a-human Fc-gamma-specific IgG (Jackson ImmunoResearch, #109-005-098) was covalently immobilized on a CMS chip (GE Healthcare, # BR-1005-30).
(§4) Mesothelin-strep was diluted in running buffer using 2-fold serial dilutions ranging from 10 nM to 1.25 nM. Association was measured at a flow of 30 μl/min for 120 s, and dissociation was followed for 1000 s. All measurements were performed at 25° C. All curves were fitted using a 1:1 binding model with RI=0. Regeneration was done for 90 s using 100 mM H3PO4 at a flow of 30 μl/min.

[3] = target: T1, StrepII-tagged Mesothelin (human …); experiment: ELISA of 293T supernatant on coated Mesothelin, normalized to IgG titer and given relative to parental mAb MN
Description: as §1, §2

[4] = target: T1, StrepII-tagged Mesothelin (human …); experiment: SPR (Biacore T200), mAb from 293T supernatant captured by anti-human Fc-gamma IgG, Mesothelin-strep 10 to 1.25 nM as analyte, 25 °C, 1:1 model
Description: as §3
FIG. 10C Isoaffinity plot showing association (kₐ) and dissociation constants (kd) as determined by surface plasmon resonance (SPR). The same supernatants as described in (B) were used for the analysis. Diagonal lines represent equal affinities.

[5] = target: T1, StrepII-tagged Mesothelin (human …); experiment: SPR (Biacore T200), mAb captured by anti-human Fc-gamma IgG (ligand level 143.6 RU), Mesothelin-strep 10 to 1.25 nM as analyte, 25 °C, 1:1 model; Chi2 0.100 RU2
Description: as §3, §4

[6] = target: T1, StrepII-tagged Mesothelin (human …); experiment: SPR (Biacore T200), mAb captured by anti-human Fc-gamma IgG (ligand level 106.5 RU), Mesothelin-strep 10 to 1.25 nM as analyte, 25 °C, 1:1 model; Chi2 0.052 RU2
Description: as §3, §4

[7] = target: T1, StrepII-tagged Mesothelin (human …); experiment: SPR, Biacore T200, mAb captured by anti-human Fc, Mesothelin-strep as analyte
[8] = target: T1, StrepII-tagged Mesothelin (human …); experiment: SPR (Biacore T200), mAb captured by anti-human Fc-gamma IgG (ligand level 90.0 RU), Mesothelin-strep 10 to 1.25 nM as analyte, 25 °C, 1:1 model; Chi2 0.075 RU2
Description: as §3, §4

T1 sequence (Q13421 other isoform, or with tags, fused parts or gaps limits assumed): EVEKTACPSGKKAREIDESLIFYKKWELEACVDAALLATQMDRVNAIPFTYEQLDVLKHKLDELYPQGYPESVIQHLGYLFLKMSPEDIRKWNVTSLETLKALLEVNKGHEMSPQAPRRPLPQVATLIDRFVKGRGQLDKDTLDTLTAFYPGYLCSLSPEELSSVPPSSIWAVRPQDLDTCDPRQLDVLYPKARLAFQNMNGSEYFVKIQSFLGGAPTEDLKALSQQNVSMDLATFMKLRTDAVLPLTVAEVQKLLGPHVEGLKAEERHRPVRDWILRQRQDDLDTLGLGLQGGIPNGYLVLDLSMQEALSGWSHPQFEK

B1: huMN5-2 (antibody, V domains shown)
VH: QVQLQQSGAELVKPGASLKLSCKASGYTFTSYWMHWVRQAPGQGLEWIGAIHPNSDNTIYYQKFKSRFTITVDKSTSTAYMQLSSLTSEDTAVYYCAIIITPVVPKFDYWGQGTTVTVSS
VL: DIVMTQSSSFMSASVGDRVSITCKASHDVGTSLAWYQQKPGQSPKLLIYWASTRQTGVPDRFSGSGSGTDFTLTISSVQSEDVATYFCQQYSSYPLTFGQGTKLEIK
notes: No sheet says in words that huMN5a is huMN5-2
Meso-binding/IgG [1]: 0.79 | Kd [2]: 0.176 nM | binding (% of parental) [3]: 84.9 % of parental | Kd [4]: 0.176 nM | koff [4]: 0.000218 s⁻¹ | kon [4]: 1.24e+06 M⁻¹ s⁻¹

B2: huMN5-3 (antibody, V domains shown)
VH: QVQLQQSGAELVKPGASLKLSCKASGYTFTSYWMHWVRQAPGQGLEWIGAIHPNSDNTIYYQKFKSRFTITVDKSTSTAYMQLSSLTSEDTAVYYCAIIITPVVPKFDYWGQGTTVTVSS
VL: DIVMTQSPDSLAVSLGERATITCKSSHDVGTSLAWYQQKPGQPPKLLIYWASTRESGVPDRFSGSGSGTDFTLTISSLQAEDVAVYYCQQYSSYPLTFGQGTKLEIK
notes: No sheet says in words that huMN5b is huMN5-3
Meso-binding/IgG [1]: 0.77 | Kd [5]: 0.114 nM | binding (% of parental) [3]: 82.4 % of parental | Kd [4]: 0.114 nM | koff [4]: 0.000115 s⁻¹ | kon [4]: 1.01e+06 M⁻¹ s⁻¹

B3: parental anti-Mesothelin mouse mAb MN, produced as chimeric full-length IgG1 antibody with human constant regions (antibody, V domains shown)
VH: QVQLQQPGAELVKPGASMKLSCKASGYTFTSYWMHWVKQRPGQGLEWIGMIHPNSDNTIYYEKFKSKATLTVDKSSSTAYMQLSSLTSEDSAVYYCAIIITPVVPKFDYWGQGTTLTVSS
VL: DIVMTQSHQFMSTSVGDRVSVTCKASHDVGTSVAWYQQKPGQSPKLLIYWASTRHTGVPDRFTGSGSGTDFTLTISNVQSEDLADYFCQQYSSYPLTFGAGTKLELK
notes: also called VH-MN (parental mouse); parental chimeric antibody
Meso-binding/IgG [1]: 0.94 | binding (% of parental) [3]: 100 % of parental | Kd [6]: 0.05 nM | koff [4]: 6.81e-05 s⁻¹ | kon [4]: 1.31e+06 M⁻¹ s⁻¹ | Kd [7]: 0.051 nM

B4: huMN3-1 (antibody, V domains shown)
VH: QVQLQQSGAELVKPGASMKLSCKASGYTFTSYWMHWVRQAPGQGLEWIGAIHPNSDNTIYYQKFKSRVTLTVDKSISTAYMQLSSLTSEDTAVYYCAIIITPVVPKFDYWGQGTTVTVSS
VL: DIQMTQSPSFLSASVGDRVTITCRASHDVGTSLAWYQQKPGQAPKLLIYWASTLQTGVPSRFSGSGSGTEFTLTISSLQPEDFATYYCQQYSSYPLTFGPGTTVDMK
Meso-binding/IgG [1]: 1.04 | binding (% of parental) [3]: 111 % of parental | Kd [4]: 0.193 nM | koff [4]: 0.000274 s⁻¹ | kon [4]: 1.42e+06 M⁻¹ s⁻¹ | Kd [8]: 0.193 nM
